From PMC3260238, “The Werner Syndrome Protein Is Distinguished from the Bloom Syndrome Protein by Its Capacity to Tightly Bind Diverse DNA Structures”
Substitutions are numbered along the chain they refer to.

Columns and labels:
WRN [1] = target: T1, WRN (human, UniProt Q14191 1-1432); assay: EMSA; ATPgS, 4 mM Mg2+; EMSA: 40 mM Tris-HCl pH 8.0, 4 mM MgCl2, 5 mM DTT, 1 mM ATPgS, 0.1 ug BSA in 10 ul, 4 C, 20 min; +10 mM KCl for quadruplexes; 4% gel, 0.5x Tris-glycine pH 8.3; settings: protein: recombinant, tags: His6
T1 sequence (Q14191 whole entry): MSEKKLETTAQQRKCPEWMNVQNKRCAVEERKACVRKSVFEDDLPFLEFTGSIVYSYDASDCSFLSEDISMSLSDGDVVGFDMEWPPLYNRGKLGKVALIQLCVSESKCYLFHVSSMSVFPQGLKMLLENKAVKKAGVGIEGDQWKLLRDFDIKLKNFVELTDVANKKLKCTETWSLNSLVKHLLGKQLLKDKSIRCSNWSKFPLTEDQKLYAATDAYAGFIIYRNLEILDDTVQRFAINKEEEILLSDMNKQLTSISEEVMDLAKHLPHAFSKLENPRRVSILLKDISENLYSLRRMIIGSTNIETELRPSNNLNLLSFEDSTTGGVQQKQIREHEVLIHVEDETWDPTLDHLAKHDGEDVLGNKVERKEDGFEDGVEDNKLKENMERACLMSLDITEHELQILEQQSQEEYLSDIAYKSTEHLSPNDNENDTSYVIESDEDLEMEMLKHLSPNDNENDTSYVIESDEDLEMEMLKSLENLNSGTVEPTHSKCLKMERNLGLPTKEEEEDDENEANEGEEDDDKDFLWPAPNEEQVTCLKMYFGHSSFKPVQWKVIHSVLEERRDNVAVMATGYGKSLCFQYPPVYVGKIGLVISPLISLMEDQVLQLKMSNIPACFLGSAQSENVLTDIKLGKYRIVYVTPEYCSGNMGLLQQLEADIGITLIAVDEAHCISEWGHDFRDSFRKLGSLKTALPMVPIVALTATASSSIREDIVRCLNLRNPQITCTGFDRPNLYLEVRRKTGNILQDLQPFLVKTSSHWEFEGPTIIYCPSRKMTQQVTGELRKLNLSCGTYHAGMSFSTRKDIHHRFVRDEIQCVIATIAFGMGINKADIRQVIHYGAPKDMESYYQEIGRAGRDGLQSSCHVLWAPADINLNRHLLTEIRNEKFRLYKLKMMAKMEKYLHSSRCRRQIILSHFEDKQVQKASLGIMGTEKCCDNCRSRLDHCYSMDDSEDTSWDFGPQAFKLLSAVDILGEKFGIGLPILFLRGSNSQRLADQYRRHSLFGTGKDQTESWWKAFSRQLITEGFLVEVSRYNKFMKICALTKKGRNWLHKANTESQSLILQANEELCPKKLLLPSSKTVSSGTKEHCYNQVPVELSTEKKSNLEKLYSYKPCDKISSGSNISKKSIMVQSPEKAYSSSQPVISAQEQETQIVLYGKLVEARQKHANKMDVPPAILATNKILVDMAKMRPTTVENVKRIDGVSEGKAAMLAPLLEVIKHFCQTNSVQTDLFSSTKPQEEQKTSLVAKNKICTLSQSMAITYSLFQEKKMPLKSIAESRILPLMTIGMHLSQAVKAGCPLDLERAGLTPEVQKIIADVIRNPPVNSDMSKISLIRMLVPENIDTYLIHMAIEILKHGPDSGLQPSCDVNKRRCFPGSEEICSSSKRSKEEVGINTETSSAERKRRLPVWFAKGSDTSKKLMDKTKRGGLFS

WRN [2] = target: T1, WRN; assay: EMSA; ATPgS, 10 mM KCl; tight, similar to G'2 TeR43; EMSA: 40 mM Tris-HCl pH 8.0, 4 mM MgCl2, 5 mM DTT, 1 mM ATPgS, 0.1 ug BSA in 10 ul, 4 C, 20 min; +10 mM KCl for quadruplexes; 4% gel, 0.5x Tris-glycine pH 8.3; settings: protein: recombinant; tags: His6; label: 5'-32P; G4 dimer of 2 strands, described as antiparallel
WRN [3] = target: T1, WRN; assay: EMSA; ATPgS, 4 mM Mg2+, 10 mM KCl; EMSA: 40 mM Tris-HCl pH 8.0, 4 mM MgCl2, 5 mM DTT, 1 mM ATPgS, 0.1 ug BSA in 10 ul, 4 C, 20 min; +10 mM KCl for quadruplexes; 4% gel, 0.5x Tris-glycine pH 8.3; settings: protein: recombinant, tags: His6, label: 5'-32P
BLM = BLM (UniProt P54132 1-1417); assay: as above; settings: protein: recombinant; tags: C-terminal FLAG; label: 5'-32P; G4 tetramer of 4 parallel strands
Chain of BLM (P54132 whole entry): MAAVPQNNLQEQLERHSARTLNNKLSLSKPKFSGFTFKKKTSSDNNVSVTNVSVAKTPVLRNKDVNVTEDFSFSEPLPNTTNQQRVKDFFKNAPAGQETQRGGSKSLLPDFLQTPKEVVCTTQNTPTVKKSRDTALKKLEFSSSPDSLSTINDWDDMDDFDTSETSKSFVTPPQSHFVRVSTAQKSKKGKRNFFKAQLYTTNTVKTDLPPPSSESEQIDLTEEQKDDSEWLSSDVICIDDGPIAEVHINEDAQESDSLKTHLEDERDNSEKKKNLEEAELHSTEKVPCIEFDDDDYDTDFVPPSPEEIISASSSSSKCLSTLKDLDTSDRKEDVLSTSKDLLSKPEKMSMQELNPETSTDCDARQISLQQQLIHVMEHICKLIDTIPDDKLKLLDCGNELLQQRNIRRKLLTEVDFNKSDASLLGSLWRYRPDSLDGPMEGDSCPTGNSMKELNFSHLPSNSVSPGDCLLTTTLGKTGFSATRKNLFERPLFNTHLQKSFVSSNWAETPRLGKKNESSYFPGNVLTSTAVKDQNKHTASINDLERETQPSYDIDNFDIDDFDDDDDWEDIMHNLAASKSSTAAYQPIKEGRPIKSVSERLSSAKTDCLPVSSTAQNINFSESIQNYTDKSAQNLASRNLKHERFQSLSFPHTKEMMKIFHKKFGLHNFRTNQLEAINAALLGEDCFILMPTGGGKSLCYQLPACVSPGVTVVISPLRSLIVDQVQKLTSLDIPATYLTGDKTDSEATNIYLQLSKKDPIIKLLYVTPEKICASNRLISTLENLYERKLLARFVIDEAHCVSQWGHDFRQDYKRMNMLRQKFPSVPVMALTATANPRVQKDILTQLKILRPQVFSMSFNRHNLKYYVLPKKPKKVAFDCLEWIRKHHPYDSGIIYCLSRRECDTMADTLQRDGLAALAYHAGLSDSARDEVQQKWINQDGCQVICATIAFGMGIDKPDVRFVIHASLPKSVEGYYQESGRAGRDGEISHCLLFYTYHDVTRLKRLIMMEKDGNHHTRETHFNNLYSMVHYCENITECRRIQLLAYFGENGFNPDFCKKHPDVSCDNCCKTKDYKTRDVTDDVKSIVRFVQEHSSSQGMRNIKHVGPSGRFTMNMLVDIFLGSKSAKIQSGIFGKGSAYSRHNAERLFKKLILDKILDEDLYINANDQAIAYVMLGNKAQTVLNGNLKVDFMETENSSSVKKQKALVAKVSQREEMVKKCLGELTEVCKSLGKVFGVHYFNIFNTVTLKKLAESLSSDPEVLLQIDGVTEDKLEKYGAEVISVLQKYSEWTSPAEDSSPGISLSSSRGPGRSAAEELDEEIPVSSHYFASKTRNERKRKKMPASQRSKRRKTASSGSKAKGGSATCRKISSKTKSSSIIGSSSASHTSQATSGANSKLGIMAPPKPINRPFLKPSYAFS

WRN K577M = WRN K577M (human, UniProt Q14191 1-1432, K577M); assay: EMSA; similar to wild type; EMSA: 40 mM Tris-HCl pH 8.0, 4 mM MgCl2, 5 mM DTT, 1 mM ATPgS, 0.1 ug BSA in 10 ul, 4 C, 20 min; +10 mM KCl for quadruplexes; 4% gel, 0.5x Tris-glycine pH 8.3; settings: protein: recombinant; tags: His6; label: 5'-32P; G4 dimer of 2 strands, described as antiparallel
Chain of WRN K577M (Q14191 whole entry K577M): as the sequence (Q14191 whole entry) above, with K577M counted along it

B1: Splayed arm DNA (dsDNA)
DNA 1: CGCGCCGAATTCCCGCTAGCAATATTCTGCAGCCAAGCTTCCGCGC
DNA 2: GGCGAACTGCCATTCGCACTTACACTGCTAGCGGGAATTCGGCGCG
WRN [1]; label: 5'-32P on strand 1, fork
  Kd: 6.2 ± 1.3 nM

B2: dsTeR63 partial duplex (dsDNA)
DNA 1: GGTTAGGGTTAGGGTTAGGGTTAGGGTTAGTTAGGGTTAGGGTTAGGGTTAGGGGCGATTGAT
DNA 2: ATCAATCGCCCCTAACCC
WRN [1]; label: 5'-32P on strand 2, 18 bp, 45 nt 5' tail on strand 1
  Kd: 7.6 ± 2.9 nM

B3: G'2 TeR63 quadruplex (structured_DNA)
DNA: B2 DNA 1
WRN [2]
  binding result: binds

## TGGACCAGACCTAGCAGCTATGGGGGAGCTGGGGAAGGTGGGAATGTGA (structured_DNA) [G4 IgG quadruplex]
WRN [3]; G4 tetramer of 4 parallel strands
  Kd: 3.4 ± 0.4 nM
BLM
  Kd: 7 ± 2.9 nM

## GGTTAGGGTTAGGGTTAGGGTTAGGGTTAGTTAGGGTTAGGGT (structured_DNA) [G'2 TeR43 quadruplex]
WRN K577M
  binding result: binds
WRN [3]; G4 dimer of 2 strands, described as antiparallel
  Kd: 0.26 ± 0.08 nM

B4: 20/46 partial duplex (dsDNA)
DNA 1: CGCTAGCAATATTCTGCAGC
DNA 2: GCGCGGAAGCTTGGCTGCAGAATATTGCTAGCGGGAAATCGGCGCG
modifications: 3'-terminal inverted dC on the 20-mer
WRN [1]; label: 5'-32P on strand 1, 20 bp, 13 nt 5' and 13 nt 3' tails on strand 2
  Kd: 2.3 ± 1.3 nM

B5: Bubble DNA (dsDNA)
DNA 1: B4 DNA 2 with A38T
DNA 2: CGCGCCGAATTCCCGCTAGTGGCGCCTTGCAGCCAAGCTTCCGCGC
WRN [1]; label: 5'-32P on strand 1, blunt, 8 nt non-complementary central bubble
  Kd: 24.7 ± 3.5 nM
